Numbered stars: 1 amine (or outer) side, 2 acyl side, 3 side chain; on linkers, the order of the positions; unused ones are H or OH. Ends that are not written are not given here. * marks the point of attachment. C20 diacid = O=C(O)CCCCCCCCCCCCCCCCCCC(=O)*; C18 diacid = O=C(O)CCCCCCCCCCCCCCCCC(=O)*; γGlu = O=C(O)[C@H](CCC(=O)[*:2])N[*:1]
T1: human calcitonin receptor (human, UniProt P30988 25-474)
T1 sequence (looked up): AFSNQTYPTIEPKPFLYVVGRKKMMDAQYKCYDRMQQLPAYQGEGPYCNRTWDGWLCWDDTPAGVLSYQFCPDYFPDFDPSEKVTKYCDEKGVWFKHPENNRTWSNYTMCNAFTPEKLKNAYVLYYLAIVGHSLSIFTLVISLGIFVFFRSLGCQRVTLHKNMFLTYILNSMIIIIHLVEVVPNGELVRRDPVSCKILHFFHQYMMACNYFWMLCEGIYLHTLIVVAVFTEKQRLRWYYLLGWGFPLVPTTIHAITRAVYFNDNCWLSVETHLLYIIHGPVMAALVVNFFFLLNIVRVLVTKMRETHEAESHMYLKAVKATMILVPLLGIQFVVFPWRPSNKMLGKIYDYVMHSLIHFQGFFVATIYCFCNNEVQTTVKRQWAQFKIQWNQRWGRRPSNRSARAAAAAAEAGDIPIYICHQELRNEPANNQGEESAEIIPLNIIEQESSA

T2: human amylin 3(a) receptor (human calcitonin receptor co-expressed with RAMP-3) (human, UniProt P30988 25-474; O60896 24-148, limits assumed)
T2 sequence (looked up) 1: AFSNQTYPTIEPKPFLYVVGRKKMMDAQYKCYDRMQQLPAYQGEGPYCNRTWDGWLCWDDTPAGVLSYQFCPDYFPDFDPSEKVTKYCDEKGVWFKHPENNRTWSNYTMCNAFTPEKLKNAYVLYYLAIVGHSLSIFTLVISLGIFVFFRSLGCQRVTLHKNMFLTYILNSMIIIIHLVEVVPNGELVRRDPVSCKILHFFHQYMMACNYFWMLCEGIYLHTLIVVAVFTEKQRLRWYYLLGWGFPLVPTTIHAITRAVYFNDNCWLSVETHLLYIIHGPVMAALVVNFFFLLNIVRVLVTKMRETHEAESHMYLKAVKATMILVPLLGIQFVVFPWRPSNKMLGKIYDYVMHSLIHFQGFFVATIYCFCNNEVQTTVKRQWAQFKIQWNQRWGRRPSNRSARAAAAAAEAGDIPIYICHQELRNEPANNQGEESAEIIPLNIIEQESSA
T2 sequence (looked up) 2: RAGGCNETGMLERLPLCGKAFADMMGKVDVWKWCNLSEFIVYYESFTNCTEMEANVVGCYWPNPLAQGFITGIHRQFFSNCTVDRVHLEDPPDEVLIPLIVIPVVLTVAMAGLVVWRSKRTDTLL


Experiments:
[1] = target: T1, human calcitonin receptor; test: cell-based or functional assay
[2] = target: T2, human amylin 3(a) receptor (human …); test: cell-based or functional assay

Row | Binder | hCTR funct. EC50 (pM) [1] | hAmylin-R funct. EC50 (pM) [2]
1 | {C20 diacid-γGlu}-LSQLSTLVLGRLSQRLHRLQTYPRTQTGSQTY-NH2 (SMILES CC(C)C[C@H](NC(=O)CC[C@H](NC(=O)CCCCCCCCCCCCCCCCCCC(=O)O)C(=O)O)C(=O)N[C@@H](CO)C(=O)N[C@@H](CCC(N)=O)C(=O)N[C@@H](CC(C)C)C(=O)N[C@@H](CO)C(=O)N[C@H](C(=O)N[C@@H](CC(C)C)C(=O)N[C@H](C(=O)N[C@@H](CC(C)C)C(=O)NCC(=O)N[C@@H](CCCNC(=N)N)C(=O)N[C@@H](CC(C)C)C(=O)N[C@@H](CO)C(=O)N[C@@H](CCC(N)=O)C(=O)N[C@@H](CCCNC(=N)N)C(=O)N[C@@H](CC(C)C)C(=O)N[C@@H](Cc1c[nH]cn1)C(=O)N[C@@H](CCCNC(=N)N)C(=O)N[C@@H](CC(C)C)C(=O)N[C@@H](CCC(N)=O)C(=O)N[C@H](C(=O)N[C@@H](Cc1ccc(O)cc1)C(=O)N1CCC[C@H]1C(=O)N[C@@H](CCCNC(=N)N)C(=O)N[C@H](C(=O)N[C@@H](CCC(N)=O)C(=O)N[C@H](C(=O)NCC(=O)N[C@@H](CO)C(=O)N[C@@H](CCC(N)=O)C(=O)N[C@H](C(=O)N[C@@H](Cc1ccc(O)cc1)C(N)=O)[C@@H](C)O)[C@@H](C)O)[C@@H](C)O)[C@@H](C)O)C(C)C)[C@@H](C)O) | 12 pM | 10 pM
2 | {C18 diacid}-EASELSTAALGRLSAELHELATLPRTETGPESP-OH [[N-terminal(C18 diacid), C-terminal(-)]mimylin] | 45 pM | 481 pM
3 | ASELSTAALGHLSAELHELATLPRTETGSGSP-NH2 [[des1, 12H, 30S, 31G]mimylin] | 3 pM | 14 pM
4 | ASELTTAVLGRLSAELHELATLPRTETGTGTP-NH2 [[des1, 6T, 9V, 30T, 31G, 32T]mimylin] | 9 pM | 46 pM
5 | {C18 diacid}-EASELSTAALGRLSAELAELATLPRTETGPESP-NH2 (SMILES CC(C)C[C@H](NC(=O)[C@H](C)NC(=O)[C@H](C)NC(=O)[C@@H](NC(=O)[C@H](CO)NC(=O)[C@H](CC(C)C)NC(=O)[C@H](CCC(=O)O)NC(=O)[C@H](CO)NC(=O)[C@H](C)NC(=O)[C@H](CCC(=O)O)NC(=O)CCCCCCCCCCCCCCCCC(=O)O)[C@@H](C)O)C(=O)NCC(=O)N[C@@H](CCCNC(=N)N)C(=O)N[C@@H](CC(C)C)C(=O)N[C@@H](CO)C(=O)N[C@@H](C)C(=O)N[C@@H](CCC(=O)O)C(=O)N[C@@H](CC(C)C)C(=O)N[C@@H](C)C(=O)N[C@@H](CCC(=O)O)C(=O)N[C@@H](CC(C)C)C(=O)N[C@@H](C)C(=O)N[C@H](C(=O)N[C@@H](CC(C)C)C(=O)N1CCC[C@H]1C(=O)N[C@@H](CCCNC(=N)N)C(=O)N[C@H](C(=O)N[C@@H](CCC(=O)O)C(=O)N[C@H](C(=O)NCC(=O)N1CCC[C@H]1C(=O)N[C@@H](CCC(=O)O)C(=O)N[C@@H](CO)C(=O)N1CCC[C@H]1C(N)=O)[C@@H](C)O)[C@@H](C)O)[C@@H](C)O) [[N-terminal(C18 diacid), 18A]mimylin] | 3 pM | 4 pM
6 | LSGLSTAVLGRLSQELHELQTYPRTETGSQTY-NH2 [[des1, 2L, 4G, 9V, 15Q, 21Q, 23Y, 30S, 31Q, 32T, 33Y]mimylin] | 6 pM | 11 pM
7 | EASELSTAALGRLSAELHELATLPRTETGSGSP-NH2 [[30S, 31G]mimylin] | 2 pM | 5 pM
8 | ASEVSTAVLGRLSAELHELATLPRTETGSGSP-NH2 [[des1, 5V, 9V, 30S, 31G]mimylin] | 2 pM | 7 pM
9 | ASELTTAVLGRLEAELHELTTLPRTETGTGTP-NH2 [[des1, 6T, 9V, 14E, 21T, 30T, 31G, 32T]mimylin] | 103 pM | 629 pM
10 | EASELSTAALGRLSAELHELATLPRTETGPESP-OH [[C-terminal(-)]mimylin] | 840 pM | 23600 pM
11 | ASGLSTATLGRLSQELHELQTYPRTETGSGTY (ends and bridges not checked) [[des1, 4G, 9T, 15Q, 21Q, 23Y, 30S, 31G, 32T, 33Y]mimylin] | 4 pM | 5 pM
12 | ASGLSTAVLGRLSQELHELQTYPRTETGSGTY (ends and bridges not checked) [[des1, 4G, 9V, 15Q, 21Q, 23Y, 30S, 31G, 32T, 33Y]mimylin] | 4 pM | 8 pM
13 | {C18 diacid}-EASELSTALLGRLSAELHELATLPRTETGPESP-NH2 (SMILES CC(C)C[C@H](NC(=O)[C@H](C)NC(=O)[C@@H](NC(=O)[C@H](CO)NC(=O)[C@H](CC(C)C)NC(=O)[C@H](CCC(=O)O)NC(=O)[C@H](CO)NC(=O)[C@H](C)NC(=O)[C@H](CCC(=O)O)NC(=O)CCCCCCCCCCCCCCCCC(=O)O)[C@@H](C)O)C(=O)N[C@@H](CC(C)C)C(=O)NCC(=O)N[C@@H](CCCNC(=N)N)C(=O)N[C@@H](CC(C)C)C(=O)N[C@@H](CO)C(=O)N[C@@H](C)C(=O)N[C@@H](CCC(=O)O)C(=O)N[C@@H](CC(C)C)C(=O)N[C@@H](Cc1c[nH]cn1)C(=O)N[C@@H](CCC(=O)O)C(=O)N[C@@H](CC(C)C)C(=O)N[C@@H](C)C(=O)N[C@H](C(=O)N[C@@H](CC(C)C)C(=O)N1CCC[C@H]1C(=O)N[C@@H](CCCNC(=N)N)C(=O)N[C@H](C(=O)N[C@@H](CCC(=O)O)C(=O)N[C@H](C(=O)NCC(=O)N1CCC[C@H]1C(=O)N[C@@H](CCC(=O)O)C(=O)N[C@@H](CO)C(=O)N1CCC[C@H]1C(N)=O)[C@@H](C)O)[C@@H](C)O)[C@@H](C)O) [[N-terminal(C18 diacid), 9L]mimylin] | 13 pM | 28 pM
14 | EASELSTAALGRLSAELHELATLPRTETGPESP-NH2 [mimylin] | 1 pM | 3 pM
15 | {C18 diacid}-EASELSTLALGRLSAELHELATLPRTETGPESP-NH2 (SMILES CC(C)C[C@H](NC(=O)[C@H](C)NC(=O)[C@H](CC(C)C)NC(=O)[C@@H](NC(=O)[C@H](CO)NC(=O)[C@H](CC(C)C)NC(=O)[C@H](CCC(=O)O)NC(=O)[C@H](CO)NC(=O)[C@H](C)NC(=O)[C@H](CCC(=O)O)NC(=O)CCCCCCCCCCCCCCCCC(=O)O)[C@@H](C)O)C(=O)NCC(=O)N[C@@H](CCCNC(=N)N)C(=O)N[C@@H](CC(C)C)C(=O)N[C@@H](CO)C(=O)N[C@@H](C)C(=O)N[C@@H](CCC(=O)O)C(=O)N[C@@H](CC(C)C)C(=O)N[C@@H](Cc1c[nH]cn1)C(=O)N[C@@H](CCC(=O)O)C(=O)N[C@@H](CC(C)C)C(=O)N[C@@H](C)C(=O)N[C@H](C(=O)N[C@@H](CC(C)C)C(=O)N1CCC[C@H]1C(=O)N[C@@H](CCCNC(=N)N)C(=O)N[C@H](C(=O)N[C@@H](CCC(=O)O)C(=O)N[C@H](C(=O)NCC(=O)N1CCC[C@H]1C(=O)N[C@@H](CCC(=O)O)C(=O)N[C@@H](CO)C(=O)N1CCC[C@H]1C(N)=O)[C@@H](C)O)[C@@H](C)O)[C@@H](C)O) [[N-terminal(C18 diacid), 8L]mimylin] | 7 pM | 9 pM
16 | {C18 diacid}-EASELHTAALGRLSAELHELATLPRTETGPESP-NH2 (SMILES CC(C)C[C@H](NC(=O)[C@H](C)NC(=O)[C@H](C)NC(=O)[C@@H](NC(=O)[C@H](Cc1c[nH]cn1)NC(=O)[C@H](CC(C)C)NC(=O)[C@H](CCC(=O)O)NC(=O)[C@H](CO)NC(=O)[C@H](C)NC(=O)[C@H](CCC(=O)O)NC(=O)CCCCCCCCCCCCCCCCC(=O)O)[C@@H](C)O)C(=O)NCC(=O)N[C@@H](CCCNC(=N)N)C(=O)N[C@@H](CC(C)C)C(=O)N[C@@H](CO)C(=O)N[C@@H](C)C(=O)N[C@@H](CCC(=O)O)C(=O)N[C@@H](CC(C)C)C(=O)N[C@@H](Cc1c[nH]cn1)C(=O)N[C@@H](CCC(=O)O)C(=O)N[C@@H](CC(C)C)C(=O)N[C@@H](C)C(=O)N[C@H](C(=O)N[C@@H](CC(C)C)C(=O)N1CCC[C@H]1C(=O)N[C@@H](CCCNC(=N)N)C(=O)N[C@H](C(=O)N[C@@H](CCC(=O)O)C(=O)N[C@H](C(=O)NCC(=O)N1CCC[C@H]1C(=O)N[C@@H](CCC(=O)O)C(=O)N[C@@H](CO)C(=O)N1CCC[C@H]1C(N)=O)[C@@H](C)O)[C@@H](C)O)[C@@H](C)O) [[N-terminal(C18 diacid), 6H]mimylin] | 9 pM | 15 pM

Reference: patent US20160272683A1 (Novo Nordisk, published 2016)
